Experimental data published in the MegaScale stability set (Tsuboyama et al. 2023).

B1: EEHEE_rd4_0647 (parent)
chain: MQVTWGNVTVTFSNPEEAKKYAEKVARKLGGQVELHNGQFRIK

Variants of: B1
Assay: folding stability dG (cDNA display proteolysis); higher = more stable
Conditions: PBS, room temperature

Variant	folding stability dG [kcal/mol]
MQVTWGNVTVTFSNPEEAKKYAEKVSRKLGGQVELHNGQFRIK	1.71
MQVTWGNVTVTFSNPEEAKKYAEKVNRKLGGQVELHNGQFRIK	0.851
MQVTWGNVTVTFSNPEEAKKYAEKVIRKLGGQVELHNGQFRIK	1.35
MQVTWGNVTVTFSNPEEAKKYAEKVLRKLGGQVELHNGQFRIK	1.34
MQVTWGNVTVTFSNPEEAKKYAEKVFRKLGGQVELHNGQFRIK	1
MQVTWGNVTVTFSNPEEAKKYAEKVCRKLGGQVELHNGQFRIK	2.08
MQVTWGNVTVTFSNPEEAMKYAEKVARKLGGQVELHNGQFRIK	2.66
MQVTWGNVTVTFSNPEEADKYAEKVARKLGGQVELHNGQFRIK	0.816
MQVTWGNVTVTFSNPEEAEKYAEKVARKLGGQVELHNGQFRIK	2.21
MQVTWWNVTVTFSNPEEAKKYAEKVARKLGGQVELHNGQFRIK	2.76
MQVTWGNVTVTFSNGEEAKKYAEKVARKLGGQVELHNGQFRIK	2.46
MQVTWGNVTVTFSNWEEAKKYAEKVARKLGGQVELHNGQFRIK	3.08
MQVTWGNVTVTFSNQEEAKKYAEKVARKLGGQVELHNGQFRIK	2.7
MQVTWGNVTVTFSNNEEAKKYAEKVARKLGGQVELHNGQFRIK	2.29
MQVTWGNVTVTFSNLEEAKKYAEKVARKLGGQVELHNGQFRIK	2.77
MQVTWGNVTVTFSNPEELKKYAEKVARKLGGQVELHNGQFRIK	1
MQVTWGNVTVTFSNPEEEKKYAEKVARKLGGQVELHNGQFRIK	0.034
MQVTWGNVTVTFSNPEEWKKYAEKVARKLGGQVELHNGQFRIK	1.08
MQVTWGNVTVTFSNPEETKKYAEKVARKLGGQVELHNGQFRIK	0.656
MQVTWGNVTVTFSNPEEAKKYAIKVARKLGGQVELHNGQFRIK	2.71
MQVTWGNVTVTFSNPEEAKKYASKVARKLGGQVELHNGQFRIK	2.15
MQVTWGNVTVTFSNPEEAKKYAEKVARKLGGQHELHNGQFRIK	0.75
MQVTWGNVTVTFSNPEEAKKYAEKVARKLGGQFELHNGQFRIK	1.85
MQVTWGNVTVTFSNPEEAKKYAEKGARKLGGQVELHNGQFRIK	0.217

Variant	folding stability dG [kcal/mol]
MQVTWGNVTVTFSNPEEAKKYAEKNARKLGGQVELHNGQFRIK	0.417
MQVTWGNVTVTFSNPEEAKKYAEKIARKLGGQVELHNGQFRIK	3.11
MQNTWGNVTVTFSNPEEAKKYAEKVARKLGGQVELHNGQFRIK	0.227
MQRTWGNVTVTFSNPEEAKKYAEKVARKLGGQVELHNGQFRIK	0.122
MQATWGNVTVTFSNPEEAKKYAEKVARKLGGQVELHNGQFRIK	0.626
MQPTWGNVTVTFSNPEEAKKYAEKVARKLGGQVELHNGQFRIK	0.068
MQVTWGNVTVTFSNPKEAKKYAEKVARKLGGQVELHNGQFRIK	2.52
MQVTWGNVTVTFSNPAEAKKYAEKVARKLGGQVELHNGQFRIK	2.78
MQVTWGNVTVTFSNPPEAKKYAEKVARKLGGQVELHNGQFRIK	1.4
MQVTWGNVTVTFSNPLEAKKYAEKVARKLGGQVELHNGQFRIK	2.78
MQVTWGNVTVTFSNPEEAKKYAEQVARKLGGQVELHNGQFRIK	2.8
MQVTWGNVTVTFSNPEEAKKYAEIVARKLGGQVELHNGQFRIK	2.75
MQVTWGNVTVTFSNPEEAKKYAEKVARKEGGQVELHNGQFRIK	1.33
MQVTWGNVTVTFSNPEEAKKYAEKVARKIGGQVELHNGQFRIK	2.96
MQVTWGNVTVTFSNPEEAKKYAEKVARKNGGQVELHNGQFRIK	1.6
MQVTWGNVTVTFSNPEEAKKYAEKVARKLGGQVELHDGQFRIK	2.69
MQVTWGNVTVTFSNPEEAKKYAEKVARKLGGQVELHWGQFRIK	1.32
MQVTWGNVTVTFSNPERAKKYAEKVARKLGGQVELHNGQFRIK	2.62
MQVTWGNVTVTFSNPEQAKKYAEKVARKLGGQVELHNGQFRIK	2.76
MQVSWGNVTVTFSNPEEAKKYAEKVARKLGGQVELHNGQFRIK	2.81
MQVAWGNVTVTFSNPEEAKKYAEKVARKLGGQVELHNGQFRIK	2.49
MQVLWGNVTVTFSNPEEAKKYAEKVARKLGGQVELHNGQFRIK	2.6
MQVMWGNVTVTFSNPEEAKKYAEKVARKLGGQVELHNGQFRIK	2.58
MQVTWGNVTVTFSNPEEAKKYAEKVARKLGGQVELNNGQFRIK	2.33

Variant	folding stability dG [kcal/mol]
MQVTWGNVTVTFSNPEEAKKYAEKVARKLGGQVELYNGQFRIK	2.79
MQVTWGNVTVTFSNPEEAKKYAEKVARKLGGQVELRNGQFRIK	2.58
MQVTWGNVTVTFSNPEEAKKYAEKVARKLGGQVELINGQFRIK	3.34
MQVTWGNVTVTFSPPEEAKKYAEKVARKLGGQVELHNGQFRIK	0.65
MQVTWGNVTVTFSWPEEAKKYAEKVARKLGGQVELHNGQFRIK	1.76
MQVTWGNVTVLFSNPEEAKKYAEKVARKLGGQVELHNGQFRIK	2.62
MQVTWGNVTVIFSNPEEAKKYAEKVARKLGGQVELHNGQFRIK	2.71
MQVTWGNVTVGFSNPEEAKKYAEKVARKLGGQVELHNGQFRIK	2.05
MQVTWGNVTVTFSNPEEAKKYAEKVARKLGGQVELHNGQVRIK	1.46
MQVTWGNVTVTFSNPEEAKKYAEKVARKLGGQVELHNGQIRIK	2.49
MQVTWGNVTVTFSNPEEAKKYAEKVARKLGGQVELHNGQERIK	0.453
MQVTWGNVTVTFSNPEEAKKYAEKVARKLGGQVELHNEQFRIK	1.44
MQVTWGNVTVTFSNPEEAKKYAEKVARKLGGQVELHNSQFRIK	1.6
MQVTWGNVTCTFSNPEEAKKYAEKVARKLGGQVELHNGQFRIK	3.62
MQVTWGNVTRTFSNPEEAKKYAEKVARKLGGQVELHNGQFRIK	2.65
MQVTWGNVTVTFSNPEEAKKNAEKVARKLGGQVELHNGQFRIK	0.633
MQVTWGNVTVTFSNPEEAKKWAEKVARKLGGQVELHNGQFRIK	2.52
MQVTWGNVTVTFSNPEEAKKSAEKVARKLGGQVELHNGQFRIK	0.62
MQVTWGNVTVTFSNPEEAKKVAEKVARKLGGQVELHNGQFRIK	1.47
MQVTWGNVTVTFSNPEEAKKPAEKVARKLGGQVELHNGQFRIK	-0.824
MQVTWGNVTVTFSNPEEAKKYAEKVAPKLGGQVELHNGQFRIK	0.58
MQVTWGNVTVTFSNPEEAKKYAEKVAGKLGGQVELHNGQFRIK	2.13
MQVTWGNVTVTFSNPEEAKKYAEKVASKLGGQVELHNGQFRIK	2.4
MQVTWGNVTVTFSNPEEAKKYAEKVARKLGGQVELHNGQFRGK	0.609

Variant	folding stability dG [kcal/mol]
MQVTWGNVTVTFSNPEEAKKYAEKVARKLGGQVELHNGQFRPK	0.784
MQVTWGNVTVTFSNPEEAKKYAEKVARKLGGQVELHNGQFRIH	2.66
MQVTWGNVTVTFSNPEEAKKYAEKVARKLGGQVELHNGQFRIP	1.8
MQVTWGNVTVTFSNPEEAKKYAEKVARKLGGQVELHNGQFRIM	2.86
MQVTWGNVTVTFSNPEEAKKYAEKVARKLGGQVRLHNGQFRIK	1.78
MQVTWGNVTVTFSNPEEAKKYAEKVARKLGGQVWLHNGQFRIK	2.2
MQVTGGNVTVTFSNPEEAKKYAEKVARKLGGQVELHNGQFRIK	0.431
MQVTYGNVTVTFSNPEEAKKYAEKVARKLGGQVELHNGQFRIK	2.53
MQVTEGNVTVTFSNPEEAKKYAEKVARKLGGQVELHNGQFRIK	0.581
MQVTHGNVTVTFSNPEEAKKYAEKVARKLGGQVELHNGQFRIK	2.15
MQVTWGNVTVTFSNPEEAKKYAEKVARKLGGQVEFHNGQFRIK	3.15
MQVTWGNVTVTFSNPEEAKKYAEKVARKLGGQVEDHNGQFRIK	1.84
MQVTWGNVTVTFANPEEAKKYAEKVARKLGGQVELHNGQFRIK	2.8
MQVTWGNVTVTFYNPEEAKKYAEKVARKLGGQVELHNGQFRIK	2.38
MQVTWGNVTVTFCNPEEAKKYAEKVARKLGGQVELHNGQFRIK	3.28
MQVTWGNVTVTFKNPEEAKKYAEKVARKLGGQVELHNGQFRIK	2.86
MQVTWGNVTVTFSNPEEAKKYAEKVARKLGFQVELHNGQFRIK	2.21
MQVTWGNVTVTFSNPEEAKKYAEKVARKLGCQVELHNGQFRIK	2.79
MQVTWGNVTVTFSNPEEAKKYAEKVARKLGTQVELHNGQFRIK	2.03
MQVTWGNVTVTFSNPEEAKKYAEKVARKLGKQVELHNGQFRIK	1.8
MQVTWGNVTVTISNPEEAKKYAEKVARKLGGQVELHNGQFRIK	1.43
MQVTWGNVTVTYSNPEEAKKYAEKVARKLGGQVELHNGQFRIK	1.28
MNVTWGNVTVTFSNPEEAKKYAEKVARKLGGQVELHNGQFRIK	2.49
MQVTWGNVTVTFSNPEEAKKYAEKVARKLSGQVELHNGQFRIK	1.98

Variant	folding stability dG [kcal/mol]
MQVTWGNVTVTFSNPEEAKKYAEKVARKLEGQVELHNGQFRIK	1.59
MQVTWGNVTVTFSNPEEAKKYAEKVARKLKGQVELHNGQFRIK	2.4
MQVTWGNVTVTFSNPEEAKKYAEKVARKLLGQVELHNGQFRIK	1.85
MQVTWGNVTVTFSNPEEAKKYAEKVARKLQGQVELHNGQFRIK	2.12
MQVTWGNVTVTFSNPEEAKKYAEKVARKLPGQVELHNGQFRIK	1.04
FQVTWGNVTVTFSNPEEAKKYAEKVARKLGGQVELHNGQFRIK	3.34
WQVTWGNVTVTFSNPEEAKKYAEKVARKLGGQVELHNGQFRIK	3.72
HQVTWGNVTVTFSNPEEAKKYAEKVARKLGGQVELHNGQFRIK	2.9
PQVTWGNVTVTFSNPEEAKKYAEKVARKLGGQVELHNGQFRIK	2.09
MQVTWGNVTVTFSNPEEAKKYAEKVARKLGGQVELHNGDFRIK	1.96
MQVTWGNVTVTFSNPEEAKKYAEKVARKLGGQVELHNGMFRIK	2.61
MQVTWGNVMVTFSNPEEAKKYAEKVARKLGGQVELHNGQFRIK	2.15
MQVTWGNVLVTFSNPEEAKKYAEKVARKLGGQVELHNGQFRIK	2.22
MQVTWGGVTVTFSNPEEAKKYAEKVARKLGGQVELHNGQFRIK	2.58
MQVTWGAVTVTFSNPEEAKKYAEKVARKLGGQVELHNGQFRIK	2.39
MQVTWGMVTVTFSNPEEAKKYAEKVARKLGGQVELHNGQFRIK	2.37
MQVTWGNFTVTFSNPEEAKKYAEKVARKLGGQVELHNGQFRIK	2.81
MQVTWGNMTVTFSNPEEAKKYAEKVARKLGGQVELHNGQFRIK	2.68
MQVTWGNRTVTFSNPEEAKKYAEKVARKLGGQVELHNGQFRIK	2.5
MQVTWGNVTVTFSNPEEAKKYLEKVARKLGGQVELHNGQFRIK	1.62
MQVTWGNVTVTFSNPEEAKKYHEKVARKLGGQVELHNGQFRIK	0.174
MQVTWGNVTVTFSNPEEAKKYDEKVARKLGGQVELHNGQFRIK	-0.372
